# T1: (His)10-MBP-tagged Thermococcus onnurineus ScpA (TON_1071) (Thermococcus onnurineus, UniProt B6YWU6)
# T1 chain: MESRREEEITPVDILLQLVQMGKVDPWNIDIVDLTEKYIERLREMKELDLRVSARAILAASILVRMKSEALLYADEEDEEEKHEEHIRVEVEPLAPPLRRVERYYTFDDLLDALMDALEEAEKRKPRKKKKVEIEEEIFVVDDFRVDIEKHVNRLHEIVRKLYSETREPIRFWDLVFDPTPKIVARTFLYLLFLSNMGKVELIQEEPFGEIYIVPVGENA
# B1: Metli_0606 (sole ScpB homologue of Methanofollis liminatans), untagged (natural protein, UniProt J1ANV5 1-161, looked up)
# chain: MVDRTAMLEAALFVADAPVSYGDLAKIFGIKPGEVPALAQELSGRLSARSSPLEVIDSGESVFMVLKEEYAVLVYPVMRPEISRAVLRTLSVIAYRQPILQSDLIEIRGGGAYAHVEELVKRDLVARYRSGRSYLLQTTPEFSRYFKTSDLVGGQGRLDID
# notes: ScpB homologue Metli_0606 of Methanofollis liminatans; untagged in the assays; also called ScpB homologue Metli_0606; source: E. coli BL21 (DE3) RIPL, purified
# B2: Selenomethionine-substituted full-length PYCH_12850 (crystallised) (natural protein, Pyrococcus yayanosii, UniProt F8AFC4 1-192, looked up)
# chain: MGLLEDKALVEAALFVAGRPLSLKELSKALGIKSLEYLEKLIELIASEYEERKSAIEVVKVLGDKWVMQLKQEYSQKVIHLMPKPELRAGELKTLALIAYLQPVEQSKIIKLRGSQAYEHIKKLLEMGLIYAEPYERTKLLGTTQKFAELYGFPENDPELIKEAFKKVIHSEYADLMEKIEKNNRKDKREEA
# modifications: selenomethionine in place of methionine
# notes: ScpB homologue PYCH_12850 of Pyrococcus yayanosii, full length; homodimer in the crystal; also called PYCH_12850 (SeMet); ScpB from Pyrococcus yayanosii; source: E. coli B834 (DE3) RIL, purified
# B3: TON_1955 (putative Thermococcus onnurineus ScpB), untagged (protein)
# chain: MGLLEDKALVEAALFVSGRPLSIKELSRALGIRSLDYLEKLIELIAAEYAERKSAIEVVRVLGDKYVMQVKQEYSQRVVHLMPRPDLRTGELKTLALIAYLQPIEQSKLVKLRGSQAYEHIRKLLEMGLIYAEPYERTKLLGTTPKFAELYGFPENDPMMIKEAFKKVVHAEYSDLIAKLEGKEEKEEMPQESEE
# Tests used:
# [1] = target: the molecule itself; experiment: SEC; individual ScpB homologue alone on Superdex 200 Increase 10/300 GL; 20 mM Tris-HCl pH 7.5, 100 mM NaCl, 1 mM DTT, 4°C; elution compared with 158 kDa and 43 kDa markers
# [2] = target: the molecule itself; experiment: crystal structure; SeMet-substituted full-length PYCH_12850; 35% pentaerythritol propoxylate, 0.1 M MES pH 5.5, 0.4 M NaCl, 22°C
# [3] = target: T1, (His)10-MBP-tagged Thermococcus …; experiment: His pull-down (Ni-NTA) and size-exclusion chromatography
binder,measurement,setting,value
B1,stoichiometry N,[1],2
B2,binding result,[2],binds
B3,binding result,[3],no binding
